In patent US20230322958A1 (Genentech, published 2023):

Tests used:
[1] = target: T1, human Notch2 on U-87 MG cells (human, UniProt Q04721 26-2471); test: cell-based or functional assay
huNotch2-EGF6-10 = target: T2, huNotch2-EGF6-10 (human, UniProt Q04721 219-418); test: SPR BIAcore T200, antibody captured on protein A, 37 C
T2 construct: also called human Notch2 EGF6-10
T2 sequence: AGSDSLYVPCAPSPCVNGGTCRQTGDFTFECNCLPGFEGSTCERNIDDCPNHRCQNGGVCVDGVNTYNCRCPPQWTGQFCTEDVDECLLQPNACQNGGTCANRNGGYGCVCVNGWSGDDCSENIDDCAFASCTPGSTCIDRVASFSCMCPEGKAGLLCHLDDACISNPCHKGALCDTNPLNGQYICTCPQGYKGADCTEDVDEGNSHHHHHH
Procedure: The binding affinities of the antibodies was determined by BIAcore™ T200 machine. Rabbit antibodies were expressed as chimeric antibodies with rabbit variable domains and human constant domains. Rat antibodies were expressed as chimeric antibodies with rat variable domains and human constant regions. Humanized antibodies were expressed in the human IgG1 backbone. For kinetics measurements, antibodies were captured on research grade protein A chip (GE Healthcare) to achieve approximately 300 RU. Ten-fold serial dilutions of huNotch2-EGF6-10 were injected in HBS-P buffer with additional 3 mM CaCl₂ at 37° C. with a flow rate of 100 μL/min. Association rates (ka) and dissociation rates (kd) were calculated using a 1:1 Langmuir binding model (BIAcore™ T200 Evaluation Software version 2.0). The equilibrium dissociation constant (KD) was calculated as the ratio kd/ka.

huNotch2-EGF4-7 = target: T3, huNotch2-EGF4-7 (human); test: SPR BIAcore, antibody captured on protein A, 37 C
T3 chain: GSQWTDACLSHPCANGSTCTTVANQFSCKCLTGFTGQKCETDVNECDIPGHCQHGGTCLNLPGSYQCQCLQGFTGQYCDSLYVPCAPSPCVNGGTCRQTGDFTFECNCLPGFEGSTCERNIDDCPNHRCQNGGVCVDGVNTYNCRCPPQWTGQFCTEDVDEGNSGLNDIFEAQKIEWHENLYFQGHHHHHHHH
Procedure: (§1) Binding of the anti-Notch2 antibodies to Notch2 from additional species and to constructs comprising different EGF repeat regions was evaluated by BIAcore™. For this experiment, the antibodies with human constant regions were captured on a protein A chip to achieve approximately 200 RU. Ten-fold serial dilutions of various antigens were injected in HIBS-P buffer with additional 3 mM CaCl₂ at 37° C. with a flow rate of 100 μL/min.

huNotch2-EGF5-8 = target: T4, huNotch2-EGF5-8 (human); test: SPR BIAcore, antibody captured on protein A, 37 C
T4 chain: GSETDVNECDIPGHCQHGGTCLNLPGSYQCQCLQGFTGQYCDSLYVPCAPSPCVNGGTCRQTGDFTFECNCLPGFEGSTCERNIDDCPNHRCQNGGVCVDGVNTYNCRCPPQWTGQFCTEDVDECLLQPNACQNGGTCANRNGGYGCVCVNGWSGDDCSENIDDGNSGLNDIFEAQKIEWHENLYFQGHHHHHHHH
Procedure: as §1

huNotch2-EGF7-9 = target: T5, huNotch2-EGF7-9 (human); test: SPR BIAcore, antibody captured on protein A, 37 C
T5 chain: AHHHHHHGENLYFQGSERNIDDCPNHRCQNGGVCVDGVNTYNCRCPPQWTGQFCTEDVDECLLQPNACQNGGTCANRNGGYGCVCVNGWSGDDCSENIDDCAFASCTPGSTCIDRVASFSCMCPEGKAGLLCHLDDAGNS
Procedure: as §1

muNotch2-EGF6-12.K268R = target: T6, muNotch2-EGF6-12.K268R (mouse); test: SPR BIAcore, antibody captured on protein A, 37 C
T6 chain: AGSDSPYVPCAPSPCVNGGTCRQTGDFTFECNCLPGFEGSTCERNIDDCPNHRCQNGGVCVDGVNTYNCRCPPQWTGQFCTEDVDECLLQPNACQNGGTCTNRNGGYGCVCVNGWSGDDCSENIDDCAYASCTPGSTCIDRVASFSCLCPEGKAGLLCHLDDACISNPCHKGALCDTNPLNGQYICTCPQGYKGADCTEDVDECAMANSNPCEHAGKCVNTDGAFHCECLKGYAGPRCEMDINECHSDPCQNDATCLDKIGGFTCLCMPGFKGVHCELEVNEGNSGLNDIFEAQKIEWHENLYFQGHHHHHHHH
Procedure: as §1

gpNotch2-EGF6-12 = target: T7, gpNotch2-EGF6-12 (guinea pig); test: SPR BIAcore, antibody captured on protein A, 37 C
T7 construct: also called guinea pig Notch2 EGF6-12
T7 chain: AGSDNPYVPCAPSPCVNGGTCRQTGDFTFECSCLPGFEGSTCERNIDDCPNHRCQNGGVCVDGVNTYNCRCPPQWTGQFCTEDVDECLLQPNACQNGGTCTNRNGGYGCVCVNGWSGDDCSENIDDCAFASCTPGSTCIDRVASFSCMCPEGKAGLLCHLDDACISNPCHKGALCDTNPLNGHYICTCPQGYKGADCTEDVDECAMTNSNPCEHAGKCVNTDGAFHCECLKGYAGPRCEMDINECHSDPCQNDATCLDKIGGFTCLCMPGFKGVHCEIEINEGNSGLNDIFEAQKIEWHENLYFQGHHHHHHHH
Procedure: as §1

[2] = target: T1, human Notch2 on U-87 MG cells; test: cell-based or functional assay; remark: listed apart in the source
[3] = target: T1, human Notch2 on U-87 MG cells; test: KinExA equilibrium whole-cell analysis on Notch2-expressing U-87 cells
Procedure: After incubation, the cells were centrifuged and the supernatants, containing the free fraction of antibody or Fab construct, were removed without disturbing the cell pellets and transferred onto a KinExA 3200 instrument with autosampler (Sapidyne Instruments Inc). Each supernatant was flowed over a solid phase composed of polystyrene beads (#440176, Sapidyne Instruments Inc) coated with biotinylated goat anti-human Immunoglobulin G (IgG) heavy+light (H+L) (#109-065-003, Jackson ImmunoResearch Laboratories Inc.) or biotinylated Notch2 extracellular domain to capture the free antibody or Fab construct. […] The fluorescent signals were recorded and converted to a voltage signal that is directly proportional to the amount of free antibody or Fab construct in the equilibrated sample. Using the built in Equilibrium Whole Cell analysis method, the KinExA Pro software performed a least squares analysis on the measured data to fit optimal solutions for the KD and the activity of the free antibody or Fab construct to a curve representative of a 1:1 reversible bi-molecular interaction. […] A N-curve analysis was applied for the testing of the two concentrations of antibody or Fab construct to determine the KD on Notch2-expressing U-87 cells.
The binding kinetics were determined using a similar assay format as the one used for the equilibrium analysis, with the exception that measurements were collected “pre-equilibrium” and the binding signals were plotted as a function of time. For the KinExA direct method, anti-Notch2 antibody and Fab formats were incubated with Notch2-expressing U-87 cells at a fixed concentration (Table 12) and aliquots of the cell binding solution were collected at different time points to determine the fraction of free antibody or Fab format. The KinExA Pro software was then used to determine the association rate constant (Kₒₙ).

T1 sequence (Q04721 26-2471): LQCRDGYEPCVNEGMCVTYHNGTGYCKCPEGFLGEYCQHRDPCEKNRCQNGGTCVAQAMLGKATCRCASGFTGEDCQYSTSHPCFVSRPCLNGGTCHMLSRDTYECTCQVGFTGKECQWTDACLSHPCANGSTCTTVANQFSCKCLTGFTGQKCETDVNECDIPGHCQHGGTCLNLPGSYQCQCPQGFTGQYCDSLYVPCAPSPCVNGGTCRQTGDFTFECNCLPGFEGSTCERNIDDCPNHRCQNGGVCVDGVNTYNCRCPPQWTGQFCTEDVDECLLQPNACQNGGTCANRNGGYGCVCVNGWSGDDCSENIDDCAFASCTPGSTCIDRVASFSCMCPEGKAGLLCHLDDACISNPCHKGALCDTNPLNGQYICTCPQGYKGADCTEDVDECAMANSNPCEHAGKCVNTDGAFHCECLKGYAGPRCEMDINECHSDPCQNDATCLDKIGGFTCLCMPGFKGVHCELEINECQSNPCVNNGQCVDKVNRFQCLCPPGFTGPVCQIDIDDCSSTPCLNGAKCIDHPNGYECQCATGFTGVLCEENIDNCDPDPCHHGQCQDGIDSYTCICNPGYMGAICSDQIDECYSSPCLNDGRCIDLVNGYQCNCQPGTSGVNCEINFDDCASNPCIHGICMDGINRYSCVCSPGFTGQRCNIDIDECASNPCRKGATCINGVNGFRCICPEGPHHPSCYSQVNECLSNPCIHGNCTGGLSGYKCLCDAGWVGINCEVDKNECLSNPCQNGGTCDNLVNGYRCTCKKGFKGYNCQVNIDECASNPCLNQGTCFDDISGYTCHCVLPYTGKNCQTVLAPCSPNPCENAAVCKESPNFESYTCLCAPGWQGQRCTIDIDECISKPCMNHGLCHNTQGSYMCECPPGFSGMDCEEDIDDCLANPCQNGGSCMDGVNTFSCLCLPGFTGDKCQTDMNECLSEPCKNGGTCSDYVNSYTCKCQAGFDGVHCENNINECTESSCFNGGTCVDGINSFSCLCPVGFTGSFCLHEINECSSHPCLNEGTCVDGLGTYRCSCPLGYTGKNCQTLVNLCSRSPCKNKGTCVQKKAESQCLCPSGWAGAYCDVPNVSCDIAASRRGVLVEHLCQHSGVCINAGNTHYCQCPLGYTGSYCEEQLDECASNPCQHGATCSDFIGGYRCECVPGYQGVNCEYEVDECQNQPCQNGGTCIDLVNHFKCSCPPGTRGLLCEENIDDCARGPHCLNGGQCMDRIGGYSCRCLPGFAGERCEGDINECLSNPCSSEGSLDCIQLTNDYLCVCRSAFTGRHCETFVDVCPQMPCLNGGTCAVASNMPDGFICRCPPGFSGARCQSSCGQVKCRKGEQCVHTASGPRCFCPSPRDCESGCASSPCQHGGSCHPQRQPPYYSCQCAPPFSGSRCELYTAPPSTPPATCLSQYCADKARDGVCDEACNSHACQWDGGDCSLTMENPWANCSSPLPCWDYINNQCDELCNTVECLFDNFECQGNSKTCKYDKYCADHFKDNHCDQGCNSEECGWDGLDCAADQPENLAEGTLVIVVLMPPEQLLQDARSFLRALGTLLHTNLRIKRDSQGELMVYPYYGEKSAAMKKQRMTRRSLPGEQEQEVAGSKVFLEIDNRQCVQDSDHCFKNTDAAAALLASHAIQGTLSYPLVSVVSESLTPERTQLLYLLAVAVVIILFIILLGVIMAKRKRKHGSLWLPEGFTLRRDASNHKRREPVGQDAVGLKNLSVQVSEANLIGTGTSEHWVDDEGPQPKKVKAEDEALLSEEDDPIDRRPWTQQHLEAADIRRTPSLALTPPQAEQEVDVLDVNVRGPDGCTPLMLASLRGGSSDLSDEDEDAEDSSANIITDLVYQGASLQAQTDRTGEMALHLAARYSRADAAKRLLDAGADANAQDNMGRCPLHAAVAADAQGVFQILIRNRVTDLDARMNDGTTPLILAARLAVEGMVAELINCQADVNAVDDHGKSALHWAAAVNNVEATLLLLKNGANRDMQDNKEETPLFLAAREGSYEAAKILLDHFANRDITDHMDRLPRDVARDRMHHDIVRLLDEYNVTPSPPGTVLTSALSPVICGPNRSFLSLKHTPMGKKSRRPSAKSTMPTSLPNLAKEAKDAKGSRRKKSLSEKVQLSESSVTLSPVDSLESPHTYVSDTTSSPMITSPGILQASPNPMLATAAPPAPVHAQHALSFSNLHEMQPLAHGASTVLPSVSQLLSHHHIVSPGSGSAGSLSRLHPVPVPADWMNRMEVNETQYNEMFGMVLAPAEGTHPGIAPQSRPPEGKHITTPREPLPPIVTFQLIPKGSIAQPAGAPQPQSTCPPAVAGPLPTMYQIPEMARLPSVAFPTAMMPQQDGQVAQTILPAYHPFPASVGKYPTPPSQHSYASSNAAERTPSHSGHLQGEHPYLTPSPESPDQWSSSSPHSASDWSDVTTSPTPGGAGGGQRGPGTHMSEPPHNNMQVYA

B1: rat.1B2 (rat/human chimeric anti-Notch2 antibody 1B2) (antibody, V domains shown)
VH: EVKLVDYGGGLVQPGASLRLSCEVSGFTFSDFYMEWIRQAPGKGLEWIAASRNKANNFSIVYSASVKDRFTISRDTYKSILYLQMSTLKPEDTAVYYCSRDSGRWGLDAWGQGTSVIVSS
VL: DIQMTQSPASLSASLGETVTIQCQTSEDIYSGLAWYHQKPGKSPQLLIYGASRLQDGVPSRFTGSGSGTQYSLKISSMQTEDEGVYFCQQGFKYPLTFGSGTKLEIK
notes: also called 1B2 Chimeric; chimeric 1B2
[1]
  Jagged1 IC50: 12.5 nM
huNotch2-EGF6-10
  Kd: 5.21 nM
  koff: 0.000943 s⁻¹
  kon: 181000 M⁻¹ s⁻¹

B2: hu1B2.L1H1.DFS (antibody, V domains shown)
VH: EVQLVESGGGLVQPGGSLKLSCAVSGFTFSDFYMEWIRQASGKGLEWIAASRNKANDFSIVYSASVKDRFTISRDTSKSTLYLQMNSLKTEDTAVYYCSRDSGRWGLDAWGQGTLVTVSS
VL: DIQMTQSPSSVSASVGDRVTITCQTSEDIYSGLAWYQQKPGKSPKLLIYGASRLQDGVPSRFSGSGSGTDYTLTISSLQPEDFATYFCQQGFKYPLTFGGGTKVEIK
notes: Human IgG1 backbone; also called hu1B2.v1.DFS
[1]
  Jagged1 IC50: 7.9 nM
huNotch2-EGF6-10
  Kd: 5.15 nM
  koff: 0.00116 s⁻¹
  kon: 226000 M⁻¹ s⁻¹

B3: hu1B2.v102 (antibody, V domains shown)
VH: EVQLVESGGGLVQPGGSLKLSCAVSGFTFSDFYMEWVRQASGKGLEWVAAQRNKANDFSIVYSASVKDRFTISRDDSKSTLYLQMNSLKTEDTAVYYCSRDGGRLALDAWGQGTLVTVSS
VL: DIQMTQSPSSVSASVGDRVTITCQTSEDIYSGLAWYQQKPGKSPKLLIYGASRLQDGVPSRFSGSGSGTDYTLTISSLQPEDFATYYCQQGFKYPLTFGGGTKVEIK
notes: Human IgG1 backbone
[1]
  Jagged1 IC50: 1.59 nM
huNotch2-EGF4-7
  binding result: binds
huNotch2-EGF5-8
  binding result: binds
huNotch2-EGF7-9
  binding result: binds
muNotch2-EGF6-12.K268R
  binding result: binds
gpNotch2-EGF6-12
  binding result: binds
huNotch2-EGF6-10
  Kd: 3.37 nM
  koff: 0.00131 s⁻¹
  kon: 387000 M⁻¹ s⁻¹

B4: hu1B2.v104 (antibody, V domains shown)
VH: EVQLVESGGGLVQPGGSLKLSCAVSGFTFSDFYMEWVRQASGKGLEWVAAQRNKANDFSIVYSASVKDRFTISRDDSKSTLYLQMNSLKTEDTAVYYCSRDGGKLALDAWGQGTLVTVSS
VL: DIQMTQSPSSVSASVGDRVTITCQTSEDIYSGLAWYQQKPGKSPKLLIYGASRLQDGVPSRFSGSGSGTDYTLTISSLQPEDFATYYCQQGFKYPLTFGGGTKVEIK
notes: Human IgG1 backbone; also called hu1B2.v014
[1]
  Jagged1 IC50: 2.48 nM
huNotch2-EGF4-7
  binding result: binds
huNotch2-EGF5-8
  binding result: binds
huNotch2-EGF7-9
  binding result: binds
muNotch2-EGF6-12.K268R
  binding result: binds
gpNotch2-EGF6-12
  binding result: binds
huNotch2-EGF6-10
  Kd: 3.09 nM
  koff: 0.0011 s⁻¹
  kon: 357000 M⁻¹ s⁻¹

B5: 1B2.v104.huFab.LC_K149C.dPEG_trimer (other)
heavy: EVQLVESGGGLVQPGGSLKLSCAVSGFTFSDFYMEWVRQASGKGLEWVAAQRNKANDFSIVYSASVKDRFTISRDDSKSTLYLQMNSLKTEDTAVYYCSRDGGKLALDAWGQGTLVTVSSASTKGPSVFPLAPSSKSTSGGTAALGCLVKDYFPEPVTVSWNSGALTSGVHTFPAVLQSSGLYSLSSVVTVPSSSLGTQTYICNVNHKPSNTKVDKKVEPKSCD
light: DIQMTQSPSSVSASVGDRVTITCQTSEDIYSGLAWYQQKPGKSPKLLIYGASRLQDGVPSRFSGSGSGTDYTLTISSLQPEDFATYYCQQGFKYPLTFGGGTKVEIKRTVAAPSVFIFPPSDEQLKSGTASVVCLLNNFYPREAKVQWCVDNALQSGNSQESVTEQDSKDSTYSLSSTLTLSKADYEKHKVYACEVTHQGLSSPVTKSFNRGEC
modifications: engineered Cys (K149C) joined through maleimide to Tri(Mal-PEG2-amide)-amine
notes: also called 1B2.v104 Fab trimer; aN2.1B2.Fab-trimer
[2]
  DLL Inhibition (IC50): > 0.7 µM
  Jag1 Inhibition (IC50): 0.5 nM
[3]
  Kd: 0.0335 nM

B6: 1B2.v104.huFab.LC_K149C.MMTS_capped (Fab, V domains shown)
VH: EVQLVESGGGLVQPGGSLKLSCAVSGFTFSDFYMEWVRQASGKGLEWVAAQRNKANDFSIVYSASVKDRFTISRDDSKSTLYLQMNSLKTEDTAVYYCSRDGGKLALDAWGQGTLVTVSS
VL: DIQMTQSPSSVSASVGDRVTITCQTSEDIYSGLAWYQQKPGKSPKLLIYGASRLQDGVPSRFSGSGSGTDYTLTISSLQPEDFATYYCQQGFKYPLTFGGGTKVEIKR
modifications: engineered Cys (K149C) capped with MMTS
notes: Monovalent Fab used in the KinExA experiments; also called Monovalent Fab
[3]
  Kd: 1.98 nM

B7: 1B2.v104.Fab-huIgG1.N297G (antibody, V domains shown)
VH: EVQLVESGGGLVQPGGSLKLSCAVSGFTFSDFYMEWVRQASGKGLEWVAAQRNKANDFSIVYSASVKDRFTISRDDSKSTLYLQMNSLKTEDTAVYYCSRDGGKLALDAWGQGTLVTVSS
VL: DIQMTQSPSSVSASVGDRVTITCQTSEDIYSGLAWYQQKPGKSPKLLIYGASRLQDGVPSRFSGSGSGTDYTLTISSLQPEDFATYYCQQGFKYPLTFGGGTKVEIK
notes: Tetravalent Fab-IgG format, human IgG1 N297G; also called Tetravalent Fab-IgG; 1B2.v104 Fab-IgG
[3]
  Kd: 0.195 nM

B8: 1B2.v104.huIgG1.N297G (antibody, V domains shown)
VH: EVQLVESGGGLVQPGGSLKLSCAVSGFTFSDFYMEWVRQASGKGLEWVAAQRNKANDFSIVYSASVKDRFTISRDDSKSTLYLQMNSLKTEDTAVYYCSRDGGKLALDAWGQGTLVTVSS
VL: DIQMTQSPSSVSASVGDRVTITCQTSEDIYSGLAWYQQKPGKSPKLLIYGASRLQDGVPSRFSGSGSGTDYTLTISSLQPEDFATYYCQQGFKYPLTFGGGTKVEIK
notes: Human IgG1 with N297G; also called Bivalent IgG antibody; 1B2.v104 IgG
[3]
  Kd: 0.0353 nM
